Assay [1] concerns hNEPT. As to the kind of experiment: Glucose-stimulated insulin secretion (GSIS) and perifusion. The class given is cell-based, human. The following applies: day 12; 2.5 mM vs 20 mM glucose. The protocol:
Glucose-stimulated insulin release (GSIR) and total insulin determination: GSIR was performed in six-well plate cultures. BMP-7-treated samples and untreated controls were washed twice with DMEM medium containing 2.5 mM glucose (Low glucose medium or L-medium). Upon addition of 2 ml of the same medium, the cells were cultured for 1 h at 37° C. to bring their insulin secretion to baseline. After 2 more washes, 1 ml of L-medium was added and the cells were returned to the incubator for 1 h. At the end of incubation period, the medium was collected and the cells exposed for 1 h to 1 ml of 20 mM glucose DMEM medium (high glucose medium or H-medium). After the collection of the H-medium supernatant, the cells were washed three times with L-medium and cultured again in low glucose conditions for 1 h. As before, supernatant was collected at the end of the incubation period. The second low glucose incubation is necessary to confirm that the cells are responding to glucose concentration changes in a physiological manner and not dumping insulin. […] The lysates and the supernatants from GSIR test were evaluated with ELISA for C-peptide content (Mercodia, Uppsala, Sweden) following manufacturer's instructions. […]
Perifusion studies: Perifusion was performed as described58. […] Insulin release was determined with the Human Insulin ELISA Mercodia Kit (Uppsala, Sweden) following the manufacturer's instructions.

Assay [2] concerns nude rat (RNU) grafts. As to the kind of experiment: Local BMP-7 delivery to hNEPT or PR2Y1+/ALK3+ cells under kidney capsule of nude rats. To be noted: POD +21. It is filed as in vivo. The text has this: The nude rat (RNU, Crl:NIH-Foxn1^rnu) is chosen over mice due to the specific BMP-7 local delivery system designed for this purpose, requiring surgical procedures for which a larger animal size would be beneficial. […] The kidney sub-capsular space of rodents is a well-established ectopic site for pancreatic cell (and particularly islet) transplantation^54,55. There are reports of success in the continuous delivery of compounds to pancreatic cells previously implanted under the kidney capsule of rats^38 using Alzet® osmotic pumps that release solution at a rate of 0.5 μl/h for 2 weeks.
While exocrine and endocrine cells coexist in the pancreas, cultured hNEPT lack native ECM for proper compartmentalization, and acinar secretions may be harmful for endocrine cells^37. Acinar cells present in hNEPT after BMP-7 treatment persist in grafts^17. This observation was hypothesized to be one reason behind the sub-optimal performance of BMP-7-treated hNEPT in vivo (see Example 2). […] The first phase of these studies transplants unfractionated hNEPT (0.5-1×10^7 cells) previously grown for 48h in attachment (prior to BMP-7 treatment) under the kidney capsule of nude rats. […] Rats are euthanized at POD +21 and their grafts analyzed by IF for C-peptide as well as the 15 pancreatic marker panel of Example 8. […]

B1: BMP-7: 35 kDa homodimeric protein of the TGF-β superfamily; FDA-approved agent; human mature chain SEQ ID NO:1/2 (protein, listed as Homo sapiens)
chain: IRSTGSKQRSQNRSKTPKNQEALRMANVAENSSSDQRQACKKHELYVSFRDLGWQDWIIAPEGYAAYYCEGECAFPLNSYMNATNHAIVQTLVHFINPETVPKPCCAPTQLNAISVLYFDDSSNVILKKYRNMVVRACGCH
modifications: homodimer; human mature chain of BMP-7 (NCBI Reference Sequence NM_001719.2) comprising peptide from 293-431
For B1, the “glucose responsiveness of induced clusters” value in assay [1] was “glucose responsive”. The “islet-like structures within the graft” value in assay [2] (PR2Y1+/ALK3+ cell graft, BMP-7 by iPRECIO pump) is recorded as “abundant islet-like structures within the graft”. In addition, the “in vivo β-like cell formation compared to controls” value in assay [2] (unfractionated hNEPT graft, BMP-7 by pump for 14 d) is reported as “Substantial in vivo β-like cell formation”.

The record behind these values is patent publication US11466255B2, “Methods and compositions for converting non-endocrine pancreatic tissue into insulin-producing cells” (UNIVERSITY OF MIAMI, priority 2015, dated 2022).
